Test results reported in paper PMC2516929, “Yersinia enterocolitica Serum Resistance Proteins YadA and Ail Bind the Complement Regulator C4b-Binding Protein” (PLoS Pathogens, 2008).

Assays:
[1] = target: T1, Ail of Y. enterocolitica serotype O:3, expressed in trans from pTM100-ail on strain YeO3-c-Ail-OCR (Y. enterocolitica serotype O:3, UniProt Q70AM3 24-178); test: radioligand binding; 125I-C4bp (or 125I-BSA) with 3x10^8 bacteria in hypotonic 1/3 GVBS (50 mM NaCl), 30 min at 37°C; bacteria pelleted through 20% sucrose; bound as percent of total radioactivity; details: one partner purified
T1 construct: Ail, Y. enterocolitica serotype O:3, ail gene cloned as 1711 bp PCR fragment into pTM100; GenBank protein CAE53849; Same protein as m5, from a plasmid; also called Ail (complemented); YeO3-c-Ail-OCR/pTM100-ail; source: pTM100-ail (cloned ail gene) in Y. enterocolitica YeO3-c-Ail-OCR (YadA-, Ail-, O-ag-, OC-), on the bacteria; overexpressed
T1 sequence: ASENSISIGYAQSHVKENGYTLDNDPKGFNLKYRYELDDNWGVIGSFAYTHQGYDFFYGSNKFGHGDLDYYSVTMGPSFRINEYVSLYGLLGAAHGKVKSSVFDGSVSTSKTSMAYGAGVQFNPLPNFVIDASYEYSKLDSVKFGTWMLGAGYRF

[2] = target: T2, YadA of Y. enterocolitica serotype O:3 (strain 6471/76), on the bacterial surface (Y. enterocolitica serotype O:3 (strain …, UniProt P31489 26-455)); test: radioligand binding; 125I-C4bp with 3x10^8 bacteria in 1/3 GVBS with NaCl from 50 to 650 mM; binding as percent of that at 50 mM NaCl; details: one partner purified
T2 construct: adhesin YadA, Y. enterocolitica 6471/76 serotype O:3, GenBank protein CAA32086; trimeric outer membrane protein; also called YadA (wild type, YeO3); source: endogenous (virulence plasmid pYV), on Y. enterocolitica O:3 strain 6471/76 (YeO3), grown in RPMI 1640 at 37°C
T2 sequence: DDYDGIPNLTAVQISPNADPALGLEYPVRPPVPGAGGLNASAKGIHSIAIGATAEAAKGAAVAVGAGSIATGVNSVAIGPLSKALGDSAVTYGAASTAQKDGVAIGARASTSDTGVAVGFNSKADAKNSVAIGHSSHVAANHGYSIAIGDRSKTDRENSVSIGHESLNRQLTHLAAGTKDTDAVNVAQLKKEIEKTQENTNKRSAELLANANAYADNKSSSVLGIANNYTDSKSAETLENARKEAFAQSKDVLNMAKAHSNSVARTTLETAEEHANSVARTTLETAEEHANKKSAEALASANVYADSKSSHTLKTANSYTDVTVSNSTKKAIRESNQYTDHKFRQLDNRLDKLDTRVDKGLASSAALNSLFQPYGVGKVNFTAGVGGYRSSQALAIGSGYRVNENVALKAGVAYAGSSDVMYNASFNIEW

B1: C4b-binding protein (C4bp) with protein S (complex)
chain 1: NCGPPPTLSFAAPMDITLTETRFKTGTTLKYTCLPGYVRSHSTQTLTCNSDGEWVYNTFCIYKRCRHPGELRNGQVEIKTDLSFGSQIEFSCSEGFFLIGSTTSRCEVQDRGVGWSHPLPQCEIVKCKPPPDIRNGRHSGEENFYAYGFSVTYSCDPRFSLLGHASISCTVENETIGVWRPSPPTCEKITCRKPDVSHGEMVSGFGPIYNYKDTIVFKCQKGFVLRGSSVIHCDADSKWNPSPPACEPNSCINLPDIPHASWETYPRPTKEDVYVVGTVLRYRCHPGYKPTTDEPTTVICQKNLRWTPYQGCEALCCPEPKLNNGEITQHRKSRPANHCVYFYGDEISFSCHETSRFSAICQGDGTWSPRTPSCGDICNFPPKIAHGHYKQSSSYSFFKEEIIYECDKGYILVGQAKLSCSYSHWSAPAPQCKALCRKPELVNGRLSVDKDQYVEPENVTIQCDSGYGVVGPQSITCSGNRTWYPEVPKCEWETPEGCEQVLTGKRLMQCLPNPEDVKMALEVYKLSLEIEQLELQRDSARQSTLDKEL
chain 2: SDAEHCPELPPVDNSIFVAKEVEGQILGTYVCIKGYHLVGKKTLFCNASKEWDNTTTECRLGHCPDPVLVNGEFSSSGPVNVSDKITFMCNDHYILKGSNRSQCLEDHTWAPPFPICKSRDCDPPGNPVHGYFEGNNFTLGSTISYYCEDRYYLVGVQEQQCVDGEWSSALPVCKLIQEAPKPECEKALLAFQESKNLCEAMENFMQQLKESGMTMEELKYSLELKKAELKAKLL
chain 3: ANSLLEETKQGNLERECIEELCNKEEAREVFENDPETDYFYPKYLVCLRSFQTGLFTAARQSTNAYPDLRSCVNAIPDQCSPLPCNEDGYMSCKDGKASFTCTCKPGWQGEKCEFDINECKDPSNINGGCSQICDNTPGSYHCSCKNGFVMLSNKKDCKDVDECSLKPSICGTAVCKNIPGDFECECPEGYRYNLKSKSCEDIDECSENMCAQLCVNYPGGYTCYCDGKKGFKLAQDQKSCEVVSVCLPLNLDTKYELLYLAEQFAGVVLYLKFRLPEISRFSAEFDFRTYDSEGVILYAESIDHSAWLLIALRGGKIEVQLKNEHTSKITTGGDVINNGLWNMVSVEELEHSISIKIAKEAVMDINKPGPLFKPENGLLETKVYFAGFPRKVESELIKPINPRLDGCIRSWNLMKQGASGIKEIIQEKQNKHCLVTVEKGSYYPGSGIAQFHIDYNNVSSAEGWHVNVTLNIRPSTGTGVMLALVSGNNTVPFAVSLVDSTSEKSQDILLSVENTVIYRIQALSLCSDQQSHLEFRVNRNNLELSTPLKIETISHEDLQRQLAVLDKAMKAKVATYLGGLPDVPFSATPVNAFYNGCMEVNINGVQLDLDEAISKHNDIRAHSCPSVWKKTKNS
modifications: 125I label (Iodogen method) in the 125I-C4bp assays; labelled chain and residues not stated
notes: eight CCP domains; the predominant form has seven identical alpha chains; three CCP domains; one beta chain in the predominant form; protein S, human; co-purified with C4bp from plasma ('C4bp with protein S'); also called 125I-C4bp; serum C4bp; source: purified from pooled human plasma (with protein S); copies: 7 + 1 +
[1]
  fold C4bp binding capacity against strain YeO3-c-OCR: ~4 fold
[2]
  fold decrease of C4bp binding at 100 mM NaCl against 50 mM NaCl: 2 fold
